Data on 1 protein can be found in FireProtDB (doi:10.1002/prot.340080106).

The conditions of this series: Bos taurus; pH 7; 25 °C; Urea; CD; PIPES-KOH 20 mM; reversible: yes; whole UniProt chain shown.

B1: Protein S100-G wild type, P02633 (protein)
chain: MSAKKSPEELKGIFEKYAAKEGDPNQLSKEELKLLLQTEFPSLLKGPSTLDELFEELDKNGDGEVSFEEFQVLVKKISQ
For B1, the “denaturant midpoint (higher = more stable)” value turned out to be 5.3 M and the unfolding free energy was found to be 0.29 kcal/mol.
